Laboratory results published in patent US20210393745A1, “OLIGOMER EXTENDED INSULIN-FC CONJUGATES AND THEIR MEDICAL USE” (Novo Nordisk A/S, priority 2018, published 2021).

Columns and labels:
[1] = target: human insulin receptor isotype B (human) (UniProt P06213); assay: SPA competition with [125I-A14Y]-human insulin, membrane-associated human IR-B; relative to human insulin standard
[2] = target: T1, human insulin receptor isotype A (human, UniProt P06213-2); assay: SPA competition with [125I-A14Y]-human insulin, solubilised human IR-A; relative to human insulin (100%)
[3] = target: T1, human insulin receptor isotype A; assay: SPA competition with [125I-A14Y]-human insulin, membrane-associated human IR-A; relative to human insulin standard
Experimental: (§1) Membrane-associated human IR and IGF-1R are purified from BHK cells stably transfected with the pZem219B vector containing either the human IR-A, IR-B or IGF-IR insert. BHK cells are harvested and homogenized in ice-cold buffer (25 mM HEPES pH 7.4, 25 mM CaCl₂ and 1 mM MgCl₂, 250 mg/L bacitracin, 0.1 mM Pefablock). The homogenates are layered on a 41% (w/v) sucrose cushion and centrifuged for 75 minutes at 95000 g at 4° C. The plasma membranes are collected, diluted 1:5 with buffer (as above) and centrifuged again for 45 minutes at 40000 g at 4° C. The pellets are resuspended in a minimal volume of buffer and drawn through a needle (size 23) three times before storage at −80° C. until usage. The relative binding affinity for either of the membrane-associated human IR-A, IR-B or IGF-1R is determined by competition binding in a SPA setup. IR assays are performed in duplicate in 96-well OptiPlates (Perkin-Elmer Life Sciences). Membrane protein is incubated with gentle agitation for 150 minutes at 25° C. with 50 pM [¹²⁵IA14Y]-human insulin in a total volume of […] assay buffer (50 mM HEPES, 150 mM NaCl, 5 mM MgSO4, 0.01% Triton X-100, 0.1% (w/v) HSA (Sigma A1887), Complete EDTA-free protease inhibitors), 50 μg of wheat germ agglutinate (WGA)-coated PVT microspheres (GE Healthcare) and increasing concentrations of ligand. Assays are terminated by centrifugation of the plate at 2000 rpm for 2 minutes and bound radioactivity quantified by counting on a TopCount NXT (Perkin-Elmer Life Sciences).
(§2) IGF-1R assays are conducted essentially as for the IR binding assays except that membrane-associated IGF-1R and 50 pM [¹²⁵I-Tyr31]-human IGF-1 were employed.

[4] = target: human insulin-like growth factor-1 receptor (human, UniProt P08069); assay: SPA competition with [125I-Tyr31]-human IGF-1, membrane-associated human IGF-1R; relative to human insulin standard
Experimental: as §1, §2

[5] = target: hFcRn ectodomain (human, UniProt P55899); assay: SPR (Biacore 4000), conjugate immobilised by amine coupling, hFcRn ectodomain as analyte, pH 6.0, 25 C, steady-state fit

Row | Molecule | Rel. aff. (%) [1] [%] | Insulin receptor affinity [IC50 relative to HI (%)] [2] [%] | Rel. aff. (%) [3] [%] | Rel. aff. (%) [4] [%] | Kd [5] [nM]
1 | (A14E, A21G, A22(GQEP)11, A66G, A67Q, A68E, A69K^, A70P, B16E, B25H, B29R, desB30 human insulin)/(226A, 227G, 228P, 234A, 235K, 297E, 315Q, 384Q, des447 hIgG4-Fc(226-447))3,5-bis[(2-acetyl)amino]benzoyl conjugate | 0.59 |  |  |  | 
2 | (A14E, A21G, A22(GQEP)12, A70K^, A71P, B25H, B29R, desB30 human insulin)/(226A, 227G, 228P, 234A, 235K, 297E, 315Q, 384Q, des447 hIgG4-Fc(226-447))3,5-bis[(2-acetyl)amino]benzoyl conjugate | 3.05 |  |  |  | 
3 | (A14E, A21G, A22(GQEP)11, A66G, A67Q, A68E, A69K^, A70P, B16H, B25H, B29R, desB30 human insulin)/(226A, 227G, 228P, 234A, 235K, 297E, 315Q, 384Q, des447 … (other, epsilon amino group of Lys A69 (A69K) carries the trivalent linker 3,5-bis[(2-acetyl)amino]benzoyl, which bridges to Cys229 of both Fc polypeptides; ; thiol of Cys229 (EU numbering) linked to -C(O)-CH2- of the linker; aglycosylated (made in E. coli)) chain 1: GIVEQCCTSICSLEQLENYCGGQEPGQEPGQEPGQEPGQEPGQEPGQEPGQEPGQEPGQEPGQEPGQEKP chain 2: FVNQHLCGSHLVEALHLVCGERGFHYTPR chain 3: AGPCPAPEAKGGPSVFLFPPKPKDTLMISRTPEVTCVVVDVSQEDPEVQFNWYVDGVEVHNAKTKPREEQFESTYRVVSVLTVLHQDWLQGKEYKCKVSNKGLPSSIEKTISKAKGQPREPQVYTLPPSQEEMTKNQVSLTCLVKGFYPSDIAVEWESQGQPENNYKTTPPVLDSDGSFFLYSRLTVDKSRWQEGNVFSCSVMHEALHNHYTQKSLSLSLG |  | 1.6 | 1.27 | 0.1 | 1600

More lines, now with the values ahead:

Row | Rel. aff. (%) [1] [%] | Insulin receptor affinity [IC50 relative to HI (%)] [2] [%] | Rel. aff. (%) [3] [%] | Rel. aff. (%) [4] [%] | Kd [5] [nM] | Molecule
4 | 1.26 |  |  |  |  | (A14E, A21G, A22(GQEP)11, A66G, A67Q, A68E, A69K^, A70P, B16H, B25H, B29R, desB30 human insulin)/(226A, 227G, 228P, 234A, 235K, 297E, 315Q, 384Q, des447 hIgG4-Fc(226-447))3,5-bis[(2-acetyl)amino]benzoyl conjugate
5 |  | 4.5 | 2.97 | 0.91 | 1500 | (A14E, A21G, A22(GQEP)12, A70K^, A71P, B25H, B29R, desB30 human insulin)/(226A, 227G, 228P, 234A, 235K, 297E, 315Q, 384Q, des447 … (other, epsilon amino group of Lys A70 (A70K) carries the trivalent linker 3,5-bis[(2-acetyl)amino]benzoyl, which bridges to Cys229 of both Fc polypeptides; ; thiol of Cys229 (EU numbering) linked to -C(O)-CH2- of the linker; aglycosylated (made in E. coli)) chain 1: GIVEQCCTSICSLEQLENYCGGQEPGQEPGQEPGQEPGQEPGQEPGQEPGQEPGQEPGQEPGQEPGQEPKP chain 2: FVNQHLCGSHLVEALYLVCGERGFHYTPR chain 3: AGPCPAPEAKGGPSVFLFPPKPKDTLMISRTPEVTCVVVDVSQEDPEVQFNWYVDGVEVHNAKTKPREEQFESTYRVVSVLTVLHQDWLQGKEYKCKVSNKGLPSSIEKTISKAKGQPREPQVYTLPPSQEEMTKNQVSLTCLVKGFYPSDIAVEWESQGQPENNYKTTPPVLDSDGSFFLYSRLTVDKSRWQEGNVFSCSVMHEALHNHYTQKSLSLSLG
6 |  | 0.4 | 0.66 | 0.29 | 1500 | (A14E, A21G, A22(GQEP)11, A66G, A67Q, A68E, A69K^, A70P, B16E, B25H, B29R, desB30 human insulin)/(226A, 227G, 228P, 234A, 235K, 297E, 315Q, 384Q, des447 … (other, epsilon amino group of Lys A69 (A69K) carries the trivalent linker 3,5-bis[(2-acetyl)amino]benzoyl, which bridges to Cys229 of both Fc polypeptides; ; thiol of Cys229 (EU numbering) linked to -C(O)-CH2- of the linker; aglycosylated (made in E. coli)) chain 1: GIVEQCCTSICSLEQLENYCGGQEPGQEPGQEPGQEPGQEPGQEPGQEPGQEPGQEPGQEPGQEPGQEKP chain 2: FVNQHLCGSHLVEALELVCGERGFHYTPR chain 3: AGPCPAPEAKGGPSVFLFPPKPKDTLMISRTPEVTCVVVDVSQEDPEVQFNWYVDGVEVHNAKTKPREEQFESTYRVVSVLTVLHQDWLQGKEYKCKVSNKGLPSSIEKTISKAKGQPREPQVYTLPPSQEEMTKNQVSLTCLVKGFYPSDIAVEWESQGQPENNYKTTPPVLDSDGSFFLYSRLTVDKSRWQEGNVFSCSVMHEALHNHYTQKSLSLSLG
